One experiment has as its target T1, Hu-TL1A-His (Homo sapiens, UniProt O95150).
T1 construct: recombinant, His-tagged; also called Hu-TL1A-His antigen (Lot#50182AS151)
T1 sequence (ligand chain, looked up): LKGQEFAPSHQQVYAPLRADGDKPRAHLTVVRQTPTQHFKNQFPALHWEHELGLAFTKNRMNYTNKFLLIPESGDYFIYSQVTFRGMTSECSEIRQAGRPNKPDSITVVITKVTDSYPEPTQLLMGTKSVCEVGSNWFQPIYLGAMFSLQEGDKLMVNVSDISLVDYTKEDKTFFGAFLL
In words: SPR (Biacore), 10A4.F7 captured on a protein G surface, Hu-TL1A-His as analyte at 250, 200, 150, 100 and 50n. The procedure:
Protein G chip (CM5) was made by coating it […] using acetate buffer (pH2.9). 10A4.F7 mab (7.5 ug/mL, 12 uL) was captured at 10 uL/min flow rate on Protein G surface. Hu-TL1A-His antigen (Lot#50182AS151) at multiple concentrations (250, 200, 150, 100 & 50n) were flowed over captured mab for 5 min at 25 ul/min and allowed to dissociate for 7.5 min. Protein G surface was regenerated with 10 uL of 50 mM NaOH and 5 uL of 25 mM HCL at 100 uL/min flow rate. Data was analyzed by using Biaevaluation 3.1. (FIG. 3)
For orientation: In SPR one partner is held on a chip, and binding of the other changes the refractive index at the surface.

For experiment [1], the target named is T2, soluble TL1A-SH6 protein (his tagged) (Homo sapiens (Human), UniProt O95150 57-251, limits assumed).
T2 construct: also called TL1A SH6 antigen; not shown: His tag (detected with anti 6xHis antibody)
T2 sequence: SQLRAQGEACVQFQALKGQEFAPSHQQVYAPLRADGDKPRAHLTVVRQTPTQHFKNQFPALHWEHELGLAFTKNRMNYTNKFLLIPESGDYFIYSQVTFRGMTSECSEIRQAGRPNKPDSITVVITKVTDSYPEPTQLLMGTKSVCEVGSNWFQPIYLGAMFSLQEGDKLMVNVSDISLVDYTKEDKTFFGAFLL
Description: FACS competition: TL1A SH6 at 200 ng/ml pre-incubated with dilutions of 10A4.F7, then added to hDR3 CHO cells, PE anti 6xHis detection. Here is the method: (§1) TL1A SH6 at 200 ng/ml (50 ul) was incubated with dilutions of 10A4.F7 (50 ul) antibody or control IgG1 antibody (all reagents in FACS buffer). The mixture was incubated for 30 minutes and then added to 10⁵ hDR3 CHO cells in 100 ul of FACS buffer and incubated for 1 hr. Cells were washed twice in FACS buffer and TL1A binding to DR3 CHO cells was detected by staining cells with PE anti 6×His antibody (R&D systems) and evaluated by FACS.
(§2) Identification of anti-TL1A antibodies that block TL1A binding to DR3 were also done by FACS by using soluble TL1A-SH6 protein (his tagged) binding to hDR3 expressed on CHO cells (DR3 CHO). Anti-TL1A or control antibodies were incubated with TL1A SH6 antigen at 0.1-0.5 ug/ml for 30 minutes in FACS buffer and then hDR3 CHO cells were added to the antibody TL1A mix and incubated for 30 minutes. Cells were washed and TL1A binding to hDR3 CHO cells was detected with PE anti-His antibody followed by FACS. Blocking antibodies prevent TL1A SH6 from binding to hDR3 CHO cells (FIG. 2).

Experiment [2] deals with T3, TL1A expressed on transfected CHO cells (Homo sapiens (Human), UniProt O95150 1-251).
T3 construct: also called TL1A CHO cells; TL1A expressing CHOs cells
T3 sequence: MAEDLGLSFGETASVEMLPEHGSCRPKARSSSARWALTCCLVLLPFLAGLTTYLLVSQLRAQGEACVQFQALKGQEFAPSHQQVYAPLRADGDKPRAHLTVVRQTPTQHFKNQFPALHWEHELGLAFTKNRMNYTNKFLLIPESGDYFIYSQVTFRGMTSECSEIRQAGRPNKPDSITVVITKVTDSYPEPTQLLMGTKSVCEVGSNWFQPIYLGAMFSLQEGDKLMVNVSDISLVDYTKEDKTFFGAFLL
Description: flow cytometry, titration of the antibody on TL1A CHO cells, PE anti-human IgG (Fc specific) detection. Here is the method: (§3) Dilutions of TL1A antibody were incubated with 10⁵ TL1A CHO cells in 100 ul FACS buffer for 1 hr. Cells were washed two times with FACS buffer and antibody binding was detected by staining with PE anti human […] antibody and evaluated by FACS.
(§4) FACS assays were used to verify that antibodies of the disclosure are binding to native TL1A expressed on cells. Briefly, dilutions of antibody in PBS 1% BSA plus 0.5% sodium azide (FACS buffer) were incubated with transfected CHO cells expressing TL1A (10⁵ cells) for 30-60 minutes at 4 C. Cells were washed twice by centrifugation, aspiration of supernatant, and addition of fresh FACS buffer. Antibody binding to TL1A on cells was detected by incubating the cells in PE (Phycoerythrin) labeled goat anti-human IgG (Fc specific) antibody for 30 min at 4C, washing the cells 2× as above, and analyzing by FACS (FIG. 1).
Background: A flow cytometer gives signals particle by particle.

Experiment [3] addresses T3, TL1A expressed on transfected CHO cells. Description: FACS titration on TL1A CHO cells, detection with PE anti-human IgG (Fc specific); the box prints no unit, the axis is IgG (nM). The procedure: as §3, §4
In experiment [4] the target is T2, soluble TL1A-SH6 protein (his tagged). In words: FACS, inhibition of the binding of TL1A SH6 (200 ng/ml) to hDR3 CHO cells, detection with PE anti-6xHis; the box prints no unit, the axis is Log nM. Here is the method: as §1, §2

One may read the Kd as the concentration at which binding is half-saturated. High values mean a looser complex, low ones a tighter complex. A word on the koff: it is the rate constant with which the complex falls apart. A lower koff goes with slow dissociation. As a reminder, the kon is the rate constant with which the complex forms. Lower therefore signals slower complex formation. The IC50 is the point on the concentration scale where inhibition reaches its midpoint. Read a high IC50 as lower potency. By EC50 is commonly meant the midpoint of the concentration-response curve.

B1: monoclonal antibody 10A4.F7 (antibody, V domains shown)
VH: QLQLQESGPGLVKPSETLSLTCTVSGGSISSRSYYWGWIRQPPGKGLEWIGSIYYNGRTYYNPSLKSRVTISVDTSKNQFSLKLSSVTAADTAVYYCAREDYGDYGAFDIWGQGTMVTVSS
VL: AIQLTQSPSSLSASVGDRVTITCRASQGISSALAWYQQKPGKAPKLLIYDASSLESGVPSRFSGSGSGTDFTLTISSLQPEDFATYYCQQFNSYPLTFGGGTKVEIK
notes: Hybridoma subclone of parental clone 10A4 (KM mouse, human IgG kappa); also called TL1A 2596.10A4.F7
In the experiment with Hu-TL1A-His, B1 yielded a Kd of 0.38 nM, an off-rate (koff) of 2.9e-05 s⁻¹ and a kon of 75000 M⁻¹ s⁻¹. Further, the IC50 in experiment [1] was 0.524 nM. The molecule further displayed an EC50 in experiment [2] of 0.4 nM. The molecule also gave an EC50 in experiment [3] of 0.407 nM. Also, the IC50 in experiment [4] stood at 0.525 nM.

(Values after patent publication US20190135928A1 (Bristol-Myers Squibb, published 2019).)
